Consider 1 molecule from patent US20210163580A1 (NATIONAL HEALTH RESEARCH INSTITUTES, published 2021).

Positions of bridges follow the written chain, without caps; N, C: chain ends. No end group written: not given here.

Assay [1] deals with T1, recombinant human RSPO3 protein (human, UniProt Q9BXY4 22-272).
T1 construct: Used biotinylated on Octet sensors, immobilised on a CM5 chip in Biacore, and coated on ELISA plates; also called hRSPO3; huRSPO3
T1 sequence (looked up): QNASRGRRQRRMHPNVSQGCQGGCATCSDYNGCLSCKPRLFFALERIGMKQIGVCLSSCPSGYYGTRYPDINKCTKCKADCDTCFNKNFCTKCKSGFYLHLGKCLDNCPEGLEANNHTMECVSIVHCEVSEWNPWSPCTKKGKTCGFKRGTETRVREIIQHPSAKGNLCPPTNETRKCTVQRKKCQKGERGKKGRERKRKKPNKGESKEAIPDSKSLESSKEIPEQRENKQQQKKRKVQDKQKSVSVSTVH
In words: competition ELISA on coated hRSPO3; blocked ligand: biotinylated LGR5 (22-560)-Fc, streptavidin-HRP [A]. On the procedure: After removing extra detection antibodies by washing the plates with 1× PBST, a TMB substrate solution was added to each well for 10 minutes.
Recombinant human RSPO3 (Peprotech) at 500 ng/ml was coated on the plates.

The target in assay [2] is T1, recombinant human RSPO3 protein. In words: SPR (Biacore T200); hRSPO3 immobilised on CM5 chip, antibody injected, single-cycle, 1:1 model. The procedure:
FIG. 7 is a graph showing use of Biacore to measure the binding kinetics of α-RSPO3 Abs-antigen interaction. The binding sensorgrams were generated using a Biacore T200 and then fitted to a simple 1:1 interaction model. […] The association was monitored for 2 min, and the final dissociation time was 15 min hRSPO3 was immobilized on a CMS chip at 27.5 RU.
The binding kinetics between α-RSPO3 Abs and recombinant human RSPO3 protein (hRSPO3) were performed at 25° C. using a Biacore T200 biosensor equipped with a CMS Series S Sensor Chip (GE Healthcare). […] Obtained sensorgrams were corrected by double subtracting the signal obtained on a reference surface and the signal of the running buffer. Sensograms were fit globally with BIAcore T200 evaluation software 3.0 using 1:1 binding model to yield affinity constants (KD values) for α-RSPO3 Abs. Replicate measurements were made in separate experiments, using independently prepared α-RSPO3 Abs dilution series and huRSPO3-coated chip surfaces.
Background: In SPR one partner is held on a chip, and binding of the other changes the refractive index at the surface.

Assay [3] has the same target. In words: cell-based or functional assay.
Another assay addresses T2, peptide B-44-53 (Homo sapiens, UniProt Q9BXY4, disulfide (positions not given here); also: biotinylated, intrachain disulfide, Cys pairing not given here).
T2 construct: synthetic cyclic peptide, a.a; also called cyclic peptide a.a; 44-53 derived from hRSPO3
T2 peptide (looked up): CATCSDYNGC
Kind of assay: ELISA: biotinylated cyclic peptide (1 µg/ml) on NeutrAvidin plate, hB1, anti-human IgG-Fc-HRP, OD 450 [B]. The procedure: (§1) FIG. 9 is a set of schematics and graphs showing epitope studies of several α-RSPO3 antibodies. […] Streptavidin-HRP was then added for detection of the bound biotinylated antibody. (B) The biotinylated cyclic peptides, at 1 μg/ml, and biotinylated recombinant human RSPO3, at 100 ng/ml, were applied to NeutrAvidin pre-coated plates. […] To detect bound anti-RSPO3 antibodies, Goat anti-human IgG-Fc-HPR (Chemicon) was then applied to the plates.
(§2) Further conformation epitope studies of α-RSPO3 Abs were performed using recombinant RSPO3 truncated proteins and cyclic peptides scanning to narrow down their target sequences. […] RSPO3 contains a furin-like cysteine-rich region. Until now, the 3D structure of RSPO3 has not been reported. Additionally, four cyclic peptides (a.a. 40-47, 44-53, 56-75 and 79-94) were designed to measure the binding of α-RSPO3 mAbs to the cyclic peptides derived from hRSPO3.

The next assay deals with T3, peptide B-40-47 (Homo sapiens, UniProt Q9BXY4, disulfide (positions not given here); also: biotinylated, intrachain disulfide, Cys pairing not given here).
T3 construct: synthetic cyclic peptide, a.a; also called cyclic peptide a.a; 40-47 derived from hRSPO3
T3 peptide (looked up): CQGGCATC
The description is as above. The procedure:
as §1, §2

The target in another assay is T4, peptide B-79-94 (Homo sapiens, UniProt Q9BXY4, disulfide 1-16 (inferred); also: biotinylated).
T4 construct: synthetic cyclic peptide, a.a; also called cyclic peptide a.a; 79-94 derived from hRSPO3
T4 peptide (looked up): CPSGYYGTRYPDINKC
The description is as above. The procedure: as §1, §2

B1: humanized anti-RSPO3 antibody hB1 (antibody, V domains shown)
VH: QIQLQESGPGLVKPSESLSLTCSVTGYSITSGYYWNWIRQFPGNGLEWMGYISYDGTNNYNPSLKDRISITRDTSKNQFFLKLNSVTAADTATYYCSVLLIQYFNIWGKGTTVTVSS
VL: DIQMTQSPSSLSASVGERVTITCRTSESVNNFLAWFHQKPGKSPKLLVYHAKTLADGVSSRFSGSGSGTQYSLKINSLQPEDFGNYYCQHFWSIPWTFGGGTKLEIKR
notes: Humanized from murine B1
Usually Kd stands for a measure of binding affinity in units of concentration. What is called koff is the rate constant with which the complex falls apart. What is called kon is the rate constant with which the complex forms. Regarding B1, the “IC50 (read off the curve)” value in assay [1] was about 0.9 µg/mL. Besides, the Kd in assay [2] was 0.0268 nM. In assay [2], the koff was 3.4e-05 s⁻¹. Also, the kon in assay [2] amounted to 1.7e+06 M⁻¹ s⁻¹. In addition, the “IC50 in the WNT reporter assay (MDA-MB436 TCF/LEF-Luc, Wnt3a plus hRSPO3)” value in assay [3] stood at 58 nM. The binding result in the assay with peptide B-44-53, with peptide B-40-47 and with peptide B-79-94 was “no binding” each time.
